We go through one molecule from patent US7090842.

In assay [1] the target is mouse anti-CEA monoclonal antibody 8019. The experiment in a line: RIA, labeled Ab2 (3H1) on 8019-coated plates, no inhibitor.
The target is the same in assay [2]. Put plainly: competition: Ab2 blocks binding of 8019 to CEA on MCF-7 cells.
Assay [3] has the same target. The experiment in a line: competition RIA, labeled Ab2 (3H1) on 8019-coated plates, 250 ng unlabeled 3H1.
Assay [4] shares this target. Put plainly: plate RIA, inhibition of radiolabeled 8019 binding to semipurified CEA, 25 ng 3H1.
Assay [5] shares this target. The experiment in a line: competition RIA, labeled Ab2 (3H1) on 8019-coated plates with 0.125 µg unlabeled 3H1.
Assay [6] shares this target. Put plainly: competition RIA, labeled Ab2 (3H1) bound to 8019-coated plates with 0.125 µg unlabeled 3H1.

A value given as a limit tells only on which side of the number the result lay.

B1: monoclonal anti-idiotype antibody 3H1 (antibody, V domains shown)
VH: EVQLQQSGPELVKPGASLKISCEASGYSLTAYTMNWVKQSHGKSLEWVGLINPFSGDTNYSQKFTGKATLTVDRSSSTAYMELLSLTSEDSAVYYCVITPVPYWYFDVWGAGTTVTVSS
VL: DIKMTQSPSSMYASLGERVTITCKASQDINGYLNWFQQEPGKSPKTLIYRANRLIDGVPSRFSGSGSGQVYSLTISSLEYEDMGTYYCLQFDEFPWMFGGGTKLEIK
For the molecule B1, the figures for the cpm Bound in assay [1] and in assay [6] were 12000 cpm and 439 cpm, respectively. The percent inhibition is above 85% in assay [2], above 90% in assay [3], 100% in assay [4] and 97% in assay [5].
